Residue numbers refer to the chain shown, from its start. Blank lines part the entries; values can stand above or below the binder they belong to.
Legend:
[1] = target: T1, His-tagged human CD19 (human, UniProt P15391 20-291, limits assumed); experiment: BLI (Octet), scFv-His coupled covalently to AR2G sensor, His-tagged human CD19 as analyte
T1 construct: not shown: His tag
T1 sequence (looked up): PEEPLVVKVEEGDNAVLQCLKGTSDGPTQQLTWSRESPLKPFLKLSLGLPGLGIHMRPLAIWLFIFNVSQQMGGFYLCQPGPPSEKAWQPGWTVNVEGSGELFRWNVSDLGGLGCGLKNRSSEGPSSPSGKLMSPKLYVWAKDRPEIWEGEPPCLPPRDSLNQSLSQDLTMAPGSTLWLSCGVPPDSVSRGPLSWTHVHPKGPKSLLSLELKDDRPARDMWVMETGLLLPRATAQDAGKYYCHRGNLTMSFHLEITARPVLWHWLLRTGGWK
Description: To assess the binding affinity of SI-63R1, Octet binding assay was used. The SI-63R1 protein was loaded via covalent coupling onto AR2G sensors at 10 ug/ml and bound to a serial dilution of His-tagged human CD19 (1:2.5 dilutions from the highest concentration of 200 nM).

[2] = target: T1, His-tagged human CD19; experiment: BLI (Octet), scFv-monoFc on AHC sensor, His-tagged human CD19 as analyte, global 1:1 fit
Description: To further screen and compare all humanized peptides, the DNA sequences encoding humanized CD19 binding variants (H1, H2, H3, H4, H5 and H6) were configured to a scFv-monoFc format and cloned (Dimitrov et al. 2012.) (SEQ ID NO. 55,57,59,61,63,65). […] They were given names as SI-63SF1(H1), SI-63SF2(H2), SI-63SF4(H3), SI-63SF5(H4), SI-63SF6(H5), and SI-63SF7(H6). Following the expression and purification processes, all six proteins were characterized for their physical characters, including yields (titer), purity (% HMW and aSEC), binding affinity (KD, Kon, and Kdis) to human CD19, and thermal stability. For Octet assay, the scFv-monoFc fusion proteins were loaded via AHC sensors at 10 ug/ml and bound to a serial dilution of His-tagged human CD19 (1:2.5 dilutions starting from the highest concentration of 200 nM), and the resulting global fit to a 1:1 binding model. For the DLS analysis, the temperature was ramped from 25° C. to 75° C. at 0.5° C./min while the radius of the scFv-monoFc fusion proteins (at 1 mg/ml) was monitored by a Wyatt DynaPro Plate Reader III.

[3] = target: T2, human CD19 protein (R&D Biosystems Cat #9269-CD-050) (human, UniProt P15391 20-291); experiment: BLI (Octet), antibody on anti-human Fc biosensors, CD19 protein as analyte; human CD19
T2 sequence (looked up): T1 sequence (looked up)
Description: (§1) The purified SI-63C1, SI-63C2, and SI-34C1 antibodies were tested for their binding affinity using biolayer interferometry (ForteBio OctetRED 384). The antibodies were bound to anti-human Fc biosensors, and human CD19 protein (R&D Biosystems Cat #9269-CD-050) was used as the analyte in a 4-point series of 2-fold dilutions with the highest concentration starting at 200 nM.

[4] = target: T2, human CD19 protein (R&D Biosystems Cat …); experiment: BLI (Octet), antibody on anti-human Fc biosensor, human CD19 as analyte
Description: as §1

[5] = target: T3, cynomolgus CD19 on cells (CD20+ B cells of cynomolgus PBMC) (cynomolgus); experiment: flow cytometry, dose response on cynomolgus CD20+ lymphocytes
T3 construct: whole, on cells; also called Cynomolgus CD20+
Description: (§2) To determine if the humanization alters the cross reactivity, the flow cytometry was carried out. The SI-63C2 antibody was used to bind the peripheral blood mononuclear cells derived from human, cynomolgus, and rhesus, respectively. Lymphocytes were gated based on forward and side scatter, followed by single cells based on the ratio of forward scatter signal height and area. Viable CD20+ B-cell and CD20− lymphocytes are gated based on the exclusion of membrane permeable amine reactive dye and the binding level of CD20 antibody (clone 2H7, Biolegend). Binding of the labelled antibody was determined as the geometric mean fluorescence intensity (gMFI) of the cell population for the fluorescent conjugate's emission channel. As shown in the histogram analysis in FIG. 4, the SI-63C2 antibody binds to CD20+ B cells from human, cynomolgus, and rhesus (4A) but not to their CD20− lymphocytes (4B).

[6] = target: T4, human CD19 on cells (CD20+ B cells of human PBMC; Raji lymphoma cells) (human, UniProt P15391 20-556); experiment: flow cytometry, dose response on human CD20+ lymphocytes; human CD20+ lymphocytes
T4 construct: whole, on cells; also called Human CD20+
T4 sequence (looked up): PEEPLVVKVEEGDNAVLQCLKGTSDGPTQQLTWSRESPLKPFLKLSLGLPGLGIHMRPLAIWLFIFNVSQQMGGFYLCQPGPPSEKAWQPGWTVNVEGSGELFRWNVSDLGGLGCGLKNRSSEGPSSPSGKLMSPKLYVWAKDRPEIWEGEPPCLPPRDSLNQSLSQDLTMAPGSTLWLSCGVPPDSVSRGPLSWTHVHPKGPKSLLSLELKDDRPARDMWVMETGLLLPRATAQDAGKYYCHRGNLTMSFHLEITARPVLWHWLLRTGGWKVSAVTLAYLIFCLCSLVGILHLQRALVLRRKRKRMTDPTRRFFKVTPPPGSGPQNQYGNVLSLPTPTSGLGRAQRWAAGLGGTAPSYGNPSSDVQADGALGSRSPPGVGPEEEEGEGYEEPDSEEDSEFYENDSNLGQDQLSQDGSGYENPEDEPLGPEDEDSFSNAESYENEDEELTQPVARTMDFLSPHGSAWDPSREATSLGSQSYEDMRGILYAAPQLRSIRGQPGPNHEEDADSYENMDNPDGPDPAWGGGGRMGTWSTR
Description: as §2

[7] = target: T5, rhesus CD19 on cells (CD20+ B cells of rhesus PBMC) (rhesus, UniProt F7F486 20-557); experiment: flow cytometry, dose response on rhesus CD20+ lymphocytes
T5 construct: also called Rhesus CD20+
T5 sequence: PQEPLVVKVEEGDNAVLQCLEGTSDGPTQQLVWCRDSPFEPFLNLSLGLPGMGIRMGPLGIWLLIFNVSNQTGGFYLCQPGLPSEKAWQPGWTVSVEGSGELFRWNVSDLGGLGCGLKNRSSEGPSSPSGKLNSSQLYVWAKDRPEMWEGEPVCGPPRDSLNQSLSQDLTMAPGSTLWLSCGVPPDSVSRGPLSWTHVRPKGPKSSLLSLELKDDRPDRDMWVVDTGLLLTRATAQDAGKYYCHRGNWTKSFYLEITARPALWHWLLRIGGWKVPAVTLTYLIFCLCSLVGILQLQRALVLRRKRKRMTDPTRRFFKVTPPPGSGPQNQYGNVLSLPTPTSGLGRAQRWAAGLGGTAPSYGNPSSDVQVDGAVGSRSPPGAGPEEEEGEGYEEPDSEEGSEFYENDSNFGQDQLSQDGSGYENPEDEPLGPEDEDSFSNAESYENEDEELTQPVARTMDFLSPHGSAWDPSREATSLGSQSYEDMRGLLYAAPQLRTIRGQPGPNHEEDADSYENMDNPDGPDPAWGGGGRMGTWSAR
Description: as §2

[8] = target: T4, human CD19 on cells (CD20+ B cells of …); experiment: flow cytometry, dose response on human CD20+ lymphocytes
Description: as §2

[9] = target: T2, human CD19 protein (R&D Biosystems Cat …); experiment: BLI (Octet); human CD19
Description: as §1

B1: SI-63R1 (humanized anti-CD19 H1 scFv-His-tagged protein) (scFv)
scFv: ENVLTQSPASLSASPGERVTITCSASSSVSYMHWYQQKPGQAPKLWIYDTSKLASGVPSRFSGSGSGNDHTLTISSMEPEDFATYYCFQGSVYPFTFGQGTKLEIKGGGGSGGGGSGGGGSGGGGSQVTLKESGPGLVQPGQTLRLTCAFSGFSLSTSGMGVGWIRQPPGKGLEWLAHIWWDDDKRYNPALKSRLTISKDTSKNQVYLQMNSLDAEDTAVYYCARMELWSYYFDYWGQGTLVTVSSGSHHHHHH
notes: also called SI-63R1(H1)
Kd [1]: 1.83 nM
koff [1]: 9.15e-05 s⁻¹

B2: SI-63SF4 (H3 scFv-monoFc fusion protein) (Fc fusion)
chain: ENVLTQSPASLSASPGERVTITCSASSSVSYMHWYQQKPGQAPKLWIYDTSKLASGVPSRFSGSGSGNDHTLTISSMEPEDFATYYCFQGSVYPFTFGQGTKLTVLGGGGSGGGGSGGGGSGGGGSQVTLKESGPGLVQPGQTLRLTCAFSGFSLSTSGMGVGWIRQPPGKGLEWLAHIWWDDDKRYNPALKSRLTISKDTSKNQVYLQMNSLDAEDTAVYYCARMELWSYYFDYWGQGTLVTVSSGGSSGSGSGSTGLVPRGSTSSSGTGTSAGTPVAGPSVFLFPPKPKDTLMISRTPEVTCVVVDVSHEDPEVKFNWYVDGVEVHNAKTKPREEQYASTYRVVSVLTVLHQDWLNGKEYKCKVSNKALPAPIEKTISKAKGQPREPQVYTLPPSRDELTKNQVSLRCHVKGFYPSDIAVEWESNGQPENNYKTTKPVLDSDGSFFLYSTLTVDKSRWQQGNVFSCSVLHEALHNHYTQKSLSLSPGKGSGLNDIFEAQKIEWHE
notes: The entry is the whole scFv-monoFc chain; also called Humanized version 3 ScFv monoFc
Kd [2]: 4.18 nM
koff [2]: 0.00191 s⁻¹

B3: SI-63SF5 (H4 scFv-monoFc fusion protein) (Fc fusion)
chain: B2 chain with L103V
notes: The entry is the whole scFv-monoFc chain; also called Humanized version 4 ScFv monoFc
Kd [2]: 5.02 nM
koff [2]: 0.00187 s⁻¹

B4: SI-63SF2 (H2 scFv-monoFc fusion protein) (Fc fusion)
chain: B2 chain with L103I, V105I
notes: The entry is the whole scFv-monoFc chain; also called Humanized version 2 ScFv monoFc
Kd [2]: 4.22 nM
koff [2]: 0.00181 s⁻¹

B6: SI-63C2 (recombinant mAb with H1 humanized anti-CD19 variable sequence) (antibody, V domains shown)
VH: QVTLKESGPGLVQPGQTLRLTCAFSGFSLSTSGMGVGWIRQPPGKGLEWLAHIWWDDDKRYNPALKSRLTISKDTSKNQVYLQMNSLDAEDTAVYYCARMELWSYYFDYWGQGTLVTVSS
VL: ENVLTQSPASLSASPGERVTITCSASSSVSYMHWYQQKPGQAPKLWIYDTSKLASGVPSRFSGSGSGNDHTLTISSMEPEDFATYYCFQGSVYPFTFGQGTKLEIKR
notes: H1 VH/VL on human kappa and human IgG CH1-Fc; also called SI-huCD19; humanized BU12, H1
Kd [3]: 3.8 nM
Kd [4]: 3.77 nM
koff [4]: 0.000229 s⁻¹
kon [4]: 60800 M⁻¹ s⁻¹
EC50 [5]: 2.9 µg/mL
EC50 [6]: 0.0397 µg/mL
EC50 [7]: 0.666 µg/mL

B9: SI-63SF6 (H5 scFv-monoFc fusion protein) (Fc fusion)
chain: EIVMTQSPSTLSASVGDRVIITCSASSSVSYMHWYQQKPGKAPKLLIYDTSKLASGVPSRFSGSGSGAEFTLTISSLQPDDFATYYCFQGSVYPFTFGQGTKLTVLGGGGSGGGGSGGGGSGGGGSEVQLVESGGGLVQPGGSLRLSCVFSGFSLSTSGMGVGWVRQAPGKGLEWVGHIWWDDDKRYNPALKSRFTISRDTSKNTVYLQMNSLRAEDTAVYYCARMELWSYYFDYWGQGTLVTVSSGSSGSGSGSTGLVPRGSTSSSGTGTSAGTPVAGPSVFLFPPKPKDTLMISRTPEVTCVVVDVSHEDPEVKFNWYVDGVEVHNAKTKPREEQYASTYRVVSVLTVLHQDWLNGKEYKCKVSNKALPAPIEKTISKAKGQPREPQVYTLPPSRDELTKNQVSLRCHVKGFYPSDIAVEWESNGQPENNYKTTKPVLDSDGSFFLYSTLTVDKSRWQQGNVFSCSVLHEALHNHYTQKSLSLSPGKGSGLNDIFEAQKIEWHE
notes: The entry is the whole scFv-monoFc chain; also called Humanized version 5 ScFv monoFc
Kd [2]: 5.68 nM
koff [2]: 0.000339 s⁻¹
kon [2]: 59700 M⁻¹ s⁻¹

Next, values leading:

Kd [2]: 6.89 nM
koff [2]: 0.000184 s⁻¹
B5: SI-63SF1 (H1 scFv-monoFc fusion protein) (Fc fusion)
chain: B2 chain with T104E, V105I, L106K
notes: The entry is the whole scFv-monoFc chain; also called Humanized version 1 ScFv monoFc

Kd [4]: 3.06 nM
koff [4]: 0.000209 s⁻¹
kon [4]: 68100 M⁻¹ s⁻¹
EC50 [8]: 0.231 µg/mL
EC50 [5]: 0.909 µg/mL
EC50 [7]: 0.991 µg/mL
B7: SI-63C1 (recombinant chimeric mAb with BU12 mouse parental anti-CD19 variable sequence) (antibody, V domains shown)
VH: QVTLKESGPGILQPSQTLSLTCSFSGFSLSTSGMGVGWIRQPSGKGLEWLAHIWWDDDKRYNPALKSRLTISKDTSSNQVFLKIASVDTADTAAYYCARMELWSYYFDYWGQGTTLTVSS
VL: ENVLTQSPAIMSASPGEKVTMTCSASSSVSYMHWYQQKSSTSPKLWIYDTSKLASGVPGRFSGSGSGNSHFLTISSMEAEDVATYYCFQGSVYPFTFGSGTKLEIKR
notes: Mouse BU12 variable regions on human kappa and human IgG CH1-Fc; also called BU12-chimeric; SI-63C1-AF647

Kd [9]: 2.1 nM
Kd [4]: 1.56 nM
koff [4]: 0.000101 s⁻¹
kon [4]: 64400 M⁻¹ s⁻¹
B8: SI-34C1 (recombinant mAb with 21D4 human anti-CD19 variable sequence) (antibody, human IgG1, kappa, V domains shown)
VH: EVQLVQSGAEVKKPGESLKISCKGSGYSFSSSWIGWVRQAPGKGLEWMGIIYPDDSDTRYSPSFQGQVTISADKSIRTAYLQWSSLKASDTAMYYCARHVTMIWGVIIDFWGQGTLVTVSS
VL: AIQLTQSPSSLSASVGDRVTITCRASQGISSALAWYQQKPGKAPKLLIYDASSLESGVPSRFSGSGSGTDFTLTISSLQPEDFATYYCQQFNSYPFTFGPGTKVDIKR
notes: also called human anti-CD19 antibody (21D4)

Kd [2]: 5.37 nM
koff [2]: 0.000377 s⁻¹
kon [2]: 70200 M⁻¹ s⁻¹
B10: SI-63SF7 (H6 scFv-monoFc fusion protein) (Fc fusion)
chain: B9 chain with V149S
notes: The entry is the whole scFv-monoFc chain; also called Humanized version 6 ScFv mono Fc

Source: patent publication US20230086069A1 (SYSTIMMUNE, published 2023)
